Assay results from patent US20130007923A1.

Experiments:
[1] = biological target: BBMV proteins (brush border membrane vesicles) from fall armyworm (FAW; Spodoptera frugiperda) larval midgut (Spodoptera frugiperda); test: heterologous competition: unlabeled Cry1Ca against 0.5 nM 125I Cry1Da (competitor pair Cry1Da/BBMV) on FAW BBMVs; reflects no displacement at Cry1Da sites, not lack of Cry1Ca binding to BBMVs
[2] = biological target: BBMV proteins (brush border membrane vesicles) from fall armyworm (FAW; Spodoptera frugiperda) larval midgut (Spodoptera frugiperda); test: homologous competition: unlabeled Cry1Da against 0.5 nM 125I Cry1Da on FAW BBMVs

Substance: Cry1Ca (purified truncated Cry toxin) (from UniProt P0A376 28-618)
- IC50 [1]: > 1000 nM

Substance: Cry1Da (purified truncated Cry toxin) (from UniProt P19415 28-594)
- IC50 [2]: 1.5 nM
